B1: MMP-2: purified human MMP 2 (gelatinase A), AnaSpec (protein, UniProt P08253 110-660, looked up)
72 kDa type IV collagenase: YNFFPRKPKWDKNQITYRIIGYTPDLDPETVDDAFARAFQVWSDVTPLRFSRIHDGEADIMINFGRWEHGDGYPFDGKDGLLAHAFAPGTGVGGDSHFDDDELWTLGEGQVVRVKYGNADGEYCKFPFLFNGKEYNSCTDTGRSDGFLWCSTTYNFEKDGKYGFCPHEALFTMGGNAEGQPCKFPFRFQGTSYDSCTTEGRTDGYRWCGTTEDYDRDKKYGFCPETAMSTVGGNSEGAPCVFPFTFLGNKYESCTSAGRSDGKMWCATTANYDDDRKWGFCPDQGYSLFLVAAHEFGHAMGLEHSQDPGALMAPIYTYTKNFRLSQDDIKGIQELYGASPDIDLGTGPTPTLGPVTPEICKQDIVFDGIAQIRGEIFFFKDRFIWRTVTPRDKPMGPLLVATFWPELPEKIDAVYEAPQEEKAVFFAGNEYWIYSASTLERGYPKPLTSLGLPPDVQRVDAAFNWSKNKKTYIFAGDKFWRYNEVKKKMDPGFPKLIADAWNAIPDNLDAVVDLQGGGHSYFFKGAYYLKLENQSLKSVKFGSIKSDWLGC
B2: MMP-12: purified human MMP-12 (elastase), AnaSpec (protein, UniProt P39900 106-470, looked up)
Macrophage metalloelastase: GPVWRKHYITYRINNYTPDMNREDVDYAIRKAFQVWSNVTPLKFSKINTGMADILVVFARGAHGDFHAFDGKGGILAHAFGPGSGIGGDAHFDEDEFWTTHSGGTNLFLTAVHEIGHSLGLGHSSDPKAVMFPTYKYVDINTFRLSADDIRGIQSLYGDPKENQRLPNPDNSEPALCDPNLSFDAVTTVGNKIFFFKDRFFWLKVSERPKTSVNLISSLWPTLPSGIEAAYEIEARNQVFLFKDDKYWLISNLRPEPNYPKSIHSFGFPNFVKKIDAAVFNPRFYRTYFFVDNQYWRYDERRQMMDPGYPKLITKNFQGIGPKIDAVFYSKNKYYYFFQGSNQFEYDFLLQRITKTLKSNSWFGC

What was measured:
influenza virus = format: cell-based; conditions: for % cell death after 72 h TCID50 influenza virus infection: protease 0.5 μg/ml, MDCK cells, serum free medium, virus control 48.21 ± 6.77
herpes virus = format: cell-based; conditions: for % cell death after 72 h TCID50 herpes virus infection: protease 0.5 μg/ml, Vero cells, serum free medium, virus control 56.0 ± 2.3

Molecule	% increase in influenza viral growth compared to virus control (influenza virus)	% cell death after 72 h TCID50 influenza virus infection (influenza virus) [%]	% increase in herpes virus growth compared to controls (herpes virus)	% cell death after 72 h TCID50 herpes virus infection (herpes virus) [%]
B1	+49.14%	71.90 ± 8.21	+31.43%	73.6 ± 6.20
B2	+1.41%	48.89 ± 4.39	+19.86%	67.12 ± 5.91

From patent publication US8709506B2, “Synergistic compositions for the treatment of topical viral infections” (Vitro Bio Sarl, priority 2010, dated 2014)
